The record followed here is PMC10359629, “Thumb-domain dynamics modulate the functional repertoire of DNA-Polymerase IV (DinB)”.

The target in data set [1] is T1, DinBΔPAD (Escherichia coli, UniProt Q47155 1-230).
T1 sequence: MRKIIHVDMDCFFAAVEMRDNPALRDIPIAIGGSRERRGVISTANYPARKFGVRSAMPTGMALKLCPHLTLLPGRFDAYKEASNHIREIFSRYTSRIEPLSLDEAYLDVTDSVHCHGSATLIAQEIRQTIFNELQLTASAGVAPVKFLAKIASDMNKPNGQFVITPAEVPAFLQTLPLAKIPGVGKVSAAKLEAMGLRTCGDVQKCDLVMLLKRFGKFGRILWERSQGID
The data set can be described thus: NMR titration; BLI: 50 mM KPi pH 6.5, 50 mM NaCl, 10 mM MgSO4, 1 mM TCEP, 303 K; NMR titrations: NMR buffer (composition in Supplementary Table S2, not fully given), 298 K. The settings on record: protein: recombinant; tags: N-terminal His6 (stop codon at 231; tag inferred from parent plasmid); blunt; each strand also partly self-complementary (called self-complementary in text).

Data set [2] addresses T2, DinB (DNA polymerase IV) (Escherichia coli, UniProt Q47155 1-351).
T2 sequence: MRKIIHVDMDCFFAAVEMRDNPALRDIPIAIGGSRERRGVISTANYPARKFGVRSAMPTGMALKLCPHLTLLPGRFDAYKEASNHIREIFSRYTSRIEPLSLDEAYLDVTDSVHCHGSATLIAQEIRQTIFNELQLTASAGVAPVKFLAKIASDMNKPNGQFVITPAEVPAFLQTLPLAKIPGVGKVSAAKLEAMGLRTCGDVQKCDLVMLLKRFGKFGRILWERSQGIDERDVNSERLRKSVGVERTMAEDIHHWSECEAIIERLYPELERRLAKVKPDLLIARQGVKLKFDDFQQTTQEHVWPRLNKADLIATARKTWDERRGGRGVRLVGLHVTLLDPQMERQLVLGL
The data set is described as above. The note with it: protein: recombinant; tags: N-terminal His6; blunt; each strand also partly self-complementary (called self-complementary in text).

B1: 18mer dsDNA (dsDNA)
DNA 1: TCTAGGGTCCTAGGACCC
DNA 2: GGGTCCTAGGACCCTAGA
Consider B1, for which the binding result in data set [1] and in data set [2] was “binds” in each case.
